The results in this text go back to US20050090648A1 (Eli Lilly, published 2005).

In experiment [1] the target is T1, Mouse Aβ 1-40 (mouse, UniProt P12023 672-711).
T1 construct: domain: Aβ 1-40; Numbers count on the Aβ peptide
T1 peptide (looked up): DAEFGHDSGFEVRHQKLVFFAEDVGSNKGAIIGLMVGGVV
The experiment is described as follows: BIAcore, single concentration of peptide. For orientation: SPR reads the build-up and loss of mass on a sensor chip optically.
From the text: (§1) All dilutions were made with HEPES buffered saline containing Tween 20. A single concentration of a variety of fragments of human Aβ or mouse Aβ 1-40 (BioSource International) was used.

Experiment [2] has as its target T2, Human Aβ fragment 10-20 (human, UniProt P05067 681-691).
T2 construct: domain: Aβ fragment 10-20; Numbers count on the Aβ peptide; also called human amyloid beta 10-20
T2 peptide (looked up): YEVHHQKLVFF
The experiment in a line: BIAcore, single concentration of fragment.
From the text: as §1

Experiment [3] addresses T3, Human Aβ fragment 16-25 (human, UniProt P05067 687-696).
T3 construct: domain: Aβ fragment 16-25; Numbers count on the Aβ peptide; also called human amyloid beta 16-25
T3 peptide (looked up): KLVFFAEDVG
The experiment is described as follows: BIAcore, single concentration of fragment.
From the text: as §1

In experiment [4] the target is T4, β-amyloid peptide (1-42) (UniProt P05067 672-713).
T4 construct: domain: β-amyloid peptide (1-42); Numbers 1-42 count on the Aβ peptide, not on the APP precursor entry; also called Aβ 1-42; Amyloid-beta 1-42
The experiment in a line: BIAcore 2000, antibody captured by anti-IgG on CM5 chip, Aβ flowed over.
Method: Antibody affinity (KD=Kd/Ka) was determined using a BIAcore biosensor 2000 and data analyzed with BIAevaluation (v. 3.1) software. A capture antibody (rabbit anti-mouse or anti-human IgG) was coupled via free amine groups to carboxyl groups on flow cell 2 of a biosensor chip (CM5) using N-ethyl-N-dimethylaminopropyl carbodiimide and N-hydroxysuccinimide (EDC/NHS). A non-specific rabbit IgG was coupled to flow cell 1 as a background control. Monoclonal antibodies were captured to yield 300 resonance units (RU). […] To regenerate the chip, bound anti-Aβ antibody was eluted from the chip using a wash with glycine-HCl (pH 2). A control injection containing no amyloid-beta served as a control for baseline subtraction.

Experiment [5] concerns the target T4, β-amyloid peptide (1-42). The experiment is described as follows: competitive ELISA on coated β-amyloid peptide (1-42); competitor against biotinylated Mu3D6; second set of three experiments.
Method: (§2) After washing the wells with phosphate buffered saline (PBS) containing 0.1% Tween 20 (Washing Buffer) using an ELISA plate washer, the wells were blocked by adding 300 μL of SuperBlock reagent (Pierce) per well. After 30 minutes of blocking, the wells were washed with Washing Buffer and excess liquid was removed.
(§3) As a background control, 100 μl of ELISA Buffer was added. The ELISA plate was incubated at room temperature for 90 min. […] The plate was incubated at room temperature for 30 min and washed with Washing Buffer. For color development, 100 μl/well of ABTS Peroxidase Substrate (Kirkegaard & Perry Laboratories) was added. Color development was stopped by adding 100 μl/well of 2% oxalic acid. […] The absorbances were plotted against the log of the competitor concentration, curves were fit to the data points (using Prism) and the IC50 was determined for each antibody using methods well-known in the art.
Experiment [6] addresses T4, β-amyloid peptide (1-42). The experiment in a line: competitive ELISA on coated β-amyloid peptide (1-42); competitor against biotinylated Mu3D6 (0.2 µg/ml); first set of three experiments. A general note: ELISA stands for enzyme-linked immunosorbent assay.
Method: as §2, §3

For orientation: Kd means the constant that tells how readily two partners part at equilibrium. Read a high Kd as lower affinity. As a reminder, the IC50 is the concentration at which inhibition is half-maximal. Low values mean higher potency, high ones lower potency.

T4 sequence (P05067 672-713 limits assumed): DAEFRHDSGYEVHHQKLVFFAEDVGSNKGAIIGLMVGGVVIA

B1: Humanized 3D6 antibody (antibody, human IgG1, kappa, V domains shown)
VH: EVQLVESGGGLVQPGGSLRLSCAGSGFTFSNYGMSWVRQAPGKGLEWVASIRSGGGRTYYSDNVKGRFTISRENAKNSLYLQMNSLRAEDTAVYYCVRYDHYSGSSDYWGQGTLVTVSS
VL: DVVMTQSPLSLPVTLGQPASISCKSSQSLLDSDGKTYLNWLQQRPGQSPRRLIYLVSKLDSGVPDRFSGSGSGTDFTLKISRVEAEDVGVYYCWQGTHFPRTFGGGTKVEIKR
notes: Expressed from pVk-Hu3D6 and pVg1-Hu3D6 in Sp2/0 (human kappa, gamma 1); also called Hu3D6
B1: the binding result in experiment [1], in experiment [2] and in experiment [3] was “no binding” in each case. Binding in experiment [4] was characterised by a dissociation constant (Kd) of 2.3 nM. Besides, the figures for the IC50 in experiment [5] and in experiment [6] were 3.97 µg/mL and 3.3 µg/mL, respectively.
